Laboratory results from the supplement of paper PMC9112550, “Optimization of the antimicrobial peptide Bac7 by deep mutational scanning” (BMC Biology, 2022).

test system: Escherichia coli TOP10; experiment: shrunken log2 fold change of peptide-encoding DNA abundance (4.5 h post-induction vs induction); higher = less antimicrobial activity (less host growth inhibition); conditions: time post-induction: 4.5 h; library: site-saturation at positions 5, 18, 19, 20
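Note: peptides expressed intracellularly from a pBAD plasmid library in pooled LB shake-flask culture, induced with 0.3% L-arabinose, DNA abundance read by NGS, three biological replicates, DESeq2 with apeglm shrinkage.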

Row | Sequence | shrunken log2 fold change
1 | RRIRLRPPRLPRPRPRPEKIPRP | -0.223
2 | RRIRLRPPRLPRPRPRPEKKPRP | -0.176
3 | RRIRLRPPRLPRPRPRPELWPRP | 0.626
4 | RRIRLRPPRLPRPRPRPEMMPRP | 2.57
5 | RRIRLRPPRLPRPRPRPENEPRP | -0.0211
6 | RRIRLRPPRLPRPRPRPEPAPRP | 0.0966
7 | RRIRLRPPRLPRPRPRPEPEPRP | 0.551
8 | RRIRLRPPRLPRPRPRPEQDPRP | -0.125
9 | RRIRLRPPRLPRPRPRPEQHPRP | 0.243
10 | RRIRLRPPRLPRPRPRPESFPRP | 0.0256
11 | RRIRLRPPRLPRPRPRPESIPRP | 0.0419
12 | RRIRLRPPRLPRPRPRPEWHPRP | 0.222
13 | RRIRLRPPRLPRPRPRPEYQPRP | -0.0351
14 | RRIRLRPPRLPRPRPRPEYSPRP | -0.279
15 | RRIRLRPPRLPRPRPRPFCAPRP | 0.106
16 | RRIRLRPPRLPRPRPRPFCGPRP | -0.126
17 | RRIRLRPPRLPRPRPRPFCKPRP | -0.101
18 | RRIRLRPPRLPRPRPRPFCNPRP | -0.245
19 | RRIRLRPPRLPRPRPRPFCSPRP | 1.91
20 | RRIRLRPPRLPRPRPRPFDSPRP | -0.174
21 | RRIRLRPPRLPRPRPRPFEFPRP | -0.119
22 | RRIRLRPPRLPRPRPRPFEHPRP | 0.0204
23 | RRIRLRPPRLPRPRPRPFETPRP | -0.241
24 | RRIRLRPPRLPRPRPRPFFEPRP | 0.058
25 | RRIRLRPPRLPRPRPRPFFHPRP | -0.37

Row | Sequence | shrunken log2 fold change
26 | RRIRLRPPRLPRPRPRPFHCPRP | -0.0953
27 | RRIRLRPPRLPRPRPRPFHDPRP | -0.713
28 | RRIRLRPPRLPRPRPRPFHQPRP | -1
29 | RRIRLRPPRLPRPRPRPFIPPRP | -0.355
30 | RRIRLRPPRLPRPRPRPFIQPRP | -0.418
31 | RRIRLRPPRLPRPRPRPFIVPRP | -0.238
32 | RRIRLRPPRLPRPRPRPFKMPRP | -0.388
33 | RRIRLRPPRLPRPRPRPFKSPRP | -0.209
34 | RRIRLRPPRLPRPRPRPFMDPRP | -0.361
35 | RRIRLRPPRLPRPRPRPFMKPRP | -0.222
36 | RRIRLRPPRLPRPRPRPFMPPRP | -0.195
37 | RRIRLRPPRLPRPRPRPFMVPRP | -0.606
38 | RRIRLRPPRLPRPRPRPFNCPRP | 0.0515
39 | RRIRLRPPRLPRPRPRPFQKPRP | 0.382
40 | RRIRLRPPRLPRPRPRPFQQPRP | 0.0873
41 | RRIRLRPPRLPRPRPRPFQSPRP | 0.0501
42 | RRIRLRPPRLPRPRPRPFRSPRP | -0.0185
43 | RRIRLRPPRLPRPRPRPFSLPRP | -0.127
44 | RRIRLRPPRLPRPRPRPFVYPRP | -0.476
45 | RRIRLRPPRLPRPRPRPGDAPRP | -0.127
46 | RRIRLRPPRLPRPRPRPGDPPRP | 0.251
47 | RRIRLRPPRLPRPRPRPGDVPRP | 0.0737
48 | RRIRLRPPRLPRPRPRPGDWPRP | 0.618
49 | RRIRLRPPRLPRPRPRPGEIPRP | -0.141
50 | RRIRLRPPRLPRPRPRPGEQPRP | 0.0657

Row | Sequence | shrunken log2 fold change
51 | RRIRLRPPRLPRPRPRPGFPPRP | -0.2
52 | RRIRLRPPRLPRPRPRPGFRPRP | 0.0673
53 | RRIRLRPPRLPRPRPRPGFTPRP | -0.191
54 | RRIRLRPPRLPRPRPRPGHPPRP | 0.0236
55 | RRIRLRPPRLPRPRPRPGKTPRP | 0.086
56 | RRIRLRPPRLPRPRPRPGLCPRP | 0.234
57 | RRIRLRPPRLPRPRPRPGNMPRP | -0.157
58 | RRIRLRPPRLPRPRPRPGNPPRP | 0.0749
59 | RRIRLRPPRLPRPRPRPGPAPRP | 0.972
60 | RRIRLRPPRLPRPRPRPGQWPRP | 0.17
61 | RRIRLRPPRLPRPRPRPGRDPRP | 0.26
62 | RRIRLRPPRLPRPRPRPGRNPRP | -0.0488
63 | RRIRLRPPRLPRPRPRPGRRPRP | 0.363
64 | RRIRLRPPRLPRPRPRPGRWPRP | 0.411
65 | RRIRLRPPRLPRPRPRPGVWPRP | 0.401
66 | RRIRLRPPRLPRPRPRPGWAPRP | 0.691
67 | RRIRLRPPRLPRPRPRPGYSPRP | -0.314
68 | RRIRLRPPRLPRPRPRPGYVPRP | -0.17
69 | RRIRLRPPRLPRPRPRPHAKPRP | -0.0928
70 | RRIRLRPPRLPRPRPRPHCHPRP | -0.727
71 | RRIRLRPPRLPRPRPRPHCMPRP | -0.283
72 | RRIRLRPPRLPRPRPRPHCYPRP | 0.011
73 | RRIRLRPPRLPRPRPRPHDYPRP | -0.398
74 | RRIRLRPPRLPRPRPRPHENPRP | 0.0369
75 | RRIRLRPPRLPRPRPRPHFHPRP | -0.0565
